Data published in patent publication US20240324599A1, “PESTICIDAL ENZYMES FOR USE ON NEMATODES, INSECTS, AND MOLLUSKS” (priority 2023, published 2024).

Legend:
Assay type in all cases: in vivo
soybean = experiment: Field trial: Geobacillus stearothermophilus esterase soybean seed treatment, yield; details: text to Table 58; 0.5 fl oz/unit
Source text: 0.5 fl oz/unit of Esterase (carboxylesterase) from Geobacillus/Bacillus stearothermophilus (SEQ ID NO:252) was coated onto soybean seeds treated with Evergol Energy (prothioconazole, metalaxyl, and penflufen fungicides) at 1 fl oz/cwt, Alias 4F (imidacloprid, insecticide) at 1.25 fl oz/unit, Sensient Red (colorant) at 0.5 fl oz/cwt, and Seedwork 4037L polymer at 1.5 fl oz/cwt. A control treatment without esterase enzyme was also created. The seed treated with esterase and control seed was planted in replicated trials distributed across 6 replicated plots with 4 replicates of 60 ft2 each at each site.

winter wheat [1] = experiment: Field trial: esterase on MAP fertilizer, winter wheat yield and vigor; details: for Yield: winter wheat
Procedure: (§1) Esterase A (EstA) from Bacillus subtilis (SEQ ID NO:254) was produced via fermentation of a recombinantly produced enzyme in Bacillus subtilis. 1 fl oz of fermentation product was applied onto 15 lb P/A (phosphate equivalent per acre) monoammonium phosphate (MAP) fertilizer in a concrete mixer and allowed to mix for 1 minute. A MAP control treatment without fermentation media was also created. MAP, alone or with fermentation media was distributed across 4 small replicated plots prior to planting of winter wheat with 5 replicates of 300 ft^2 each at each site.

corn [2] = experiment: Field trial: esterase on MAP/DAP fertilizer, corn yield; details: for Yield: corn, 2 fl oz/A on MAP/DAP (72 lb/A Phosphate)
Procedure: Esterase A (EstA) from Bacillus subtilis (SEQ ID NO:254) was produced via fermentation of a recombinantly produced enzyme in Bacillus subtilis. 2 fl oz of fermentation product was applied onto either 72 lb P/A (phosphate equivalent per acre) monoammonium phosphate (MAP) fertilizer or diammonium phosphate (DAP) fertilizer in a concrete mixer, and allowed to mix for 1 minute. A MAP/DAP control treatment without fermentation media was also created. MAP or DAP, alone or with fermentation media was distributed across 4 small replicated plots each prior to planting of corn with 5 replicates of 400 ft2 each at each site (4 site with MAP, 4 sites with DAP, combined in data in Table 52 below).

winter wheat [3] = experiment: Field trial: esterase on urea fertilizer, winter wheat yield; details: for Yield: winter wheat
Procedure: as §1, with “oz or 2 fl oz” for “oz”, “N/A (nitrogen” for “P/A (phosphate”, “urea” for “monoammonium phosphate (MAP)”, “urea” for “MAP”, “urea,” for “MAP,”

corn [4] = experiment: Field trial: esterase on DAP fertilizer, corn yield; details: for Yield: corn
Procedure: (§2) Esterase A (EstA) from Bacillus subtilis (SEQ ID NO:254) was produced via fermentation of a recombinantly produced enzyme in Bacillus subtilis. 1, 2, or 3 fl oz of fermentation product was applied onto 67.5 lb P/A (phosphate equivalent per acre) diammonium phosphate (DAP) fertilizer in a concrete mixer, and allowed to mix for 1 minute. A DAP control treatment without fermentation media was also created. DAP, alone or with fermentation media was distributed across 4 small replicated plots each prior to planting of corn with 4 replicates of 400 ft^2 each at each site.

corn [5] = experiment: Field trial: esterase on urea with or without NBPT, corn yield; details: for Yield: corn
Procedure: as §2, with “135” for “67.5”, “N/A (nitrogen” for “P/A (phosphate”, “urea” for “diammonium phosphate (DAP)”, “urea” for “DAP”, “An addition treatment that contained 64 fl oz/ton N-Butyl-thiophosphoric triamide (NBPT) nitrogen stabilizer or 64 fl oz/ton NBPT nitrogen stabilizer with 3 fl oz/A EstA fermentation product was also included in the trial. Urea,” for “DAP,”, “ft2” for “ft^2”

corn [6] = experiment: Field trial: EstA Esterase corn seed treatment, yield; details: text to Table 59; 2.5 fl oz/unit
Source text: 2.5 fl oz/unit of EstA Esterase from recombinant Bacillus subtilis fermentation (SEQ ID NO: 254) was coated onto hybrid corn seeds treated with Fludioxinil, Azoxystrobin, mefonoxam, and thiabendaz fungicides, cyantraniliproleinsecticide, peridium 1006 polymer, and (colorant). A control treatment without esterase enzyme was also created. The seed treated with esterase and control seed was planted in replicated trials distributed across 16 replicated plots with 4 replicates of 80 ft2 each at each site.

B1: Geobacillus stearothermophilus (a.k.a B. Stearothermophilus) Esterase (protein, listed as Bacillus stearothermophilus, listed as Geobacillus stearothermophilus)
chain: MKIVPPKPFFFEAGERAVLLLHGFTGNSADVRMLGRFLESKGYTCHAPIYKGHGVPPEELVHTGPDDWWQDVMNGYEFLKNKGYEKIAVAGLSLGGVFSLKLGYTVPIEGIVTMCAPMYIKSEETMYEGVLEYAREYKKREGKSEEQIEQEMEKFKQTPMKTLKALQELIADVRDHLDLIYAPTFVVQARHDEMINPDSANIIYNEIESPVKQIKWYEQSGHVITLDQEKDQLHEDIYAFLESLDW
soybean
  yield versus base seed treatment package, in words: increased the yield

B2: Bacillus subtilis EstA Esterase (protein, listed as Bacillus subtilis)
chain: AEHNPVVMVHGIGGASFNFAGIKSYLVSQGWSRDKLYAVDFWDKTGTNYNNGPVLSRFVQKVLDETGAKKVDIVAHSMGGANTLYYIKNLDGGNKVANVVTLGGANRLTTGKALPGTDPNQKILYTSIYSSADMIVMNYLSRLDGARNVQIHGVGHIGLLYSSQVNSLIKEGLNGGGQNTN
notes: fermentation product of recombinant Bacillus subtilis
Winter wheat [1]; text to Table 51
  vigor of young wheat seedlings, in words: increased the vigor
Winter wheat [1]; text to Table 51, 1 fl oz fermentation product on 15 lb P/A MAP
  yield versus MAP control, in words: increased the yield
Winter wheat [1]; winter wheat seedlings, 1 fl oz/A on MAP (15 lb/A Phosphate), base control 4.0
  Vigor Score (1 to 5 scale, 5 is highest): 4.13
Winter wheat [1]; 1 fl oz/A on MAP (15 lb/A Phosphate), base control 61.33
  Yield: 62.82 Bu/A
Winter wheat [1]; 1 fl oz/A on MAP (15 lb/A Phosphate), base control 4124.5
  Yield: 4224.7 Kg/ha
Corn [2]; base control 202.3
  Yield: 206.6 Bu/A
Corn [2]; base control 12798
  Yield: 13077 Kg/ha
Corn [2]; text to Table 52, 2 fl oz on 72 lb P/A MAP or DAP
  yield versus MAP/DAP control, in words: increased the yield
Winter wheat [3]; text to Table 53, 1 or 2 fl oz on 15 lb N/A urea
  yield versus urea control, in words: increased the yield
Winter wheat [3]; 1 fl oz/A on Urea (15 lb/A Nitrogen), base control 76.1
  Yield: 79.6 Bu/A
Winter wheat [3]; 1 fl oz/A on Urea (15 lb/A Nitrogen), base control 5117.8
  Yield: 5353.2 Kg/ha
Winter wheat [3]; 2 fl oz/A on Urea (15 lb/A Nitrogen), base control 76.1
  Yield: 79.9 Bu/A
Winter wheat [3]; 2 fl oz/A on Urea (15 lb/A Nitrogen), base control 5117.8
  Yield: 5375.4 Kg/ha
Corn [4]; 1 fl oz/A on DAP (67.5 lb/A Phosphate), base control 196.0
  Yield: 201.8 Bu/A
Corn [4]; 1 fl oz/A on DAP (67.5 lb/A Phosphate), base control 12319.5
  Yield: 12684.4 Kg/ha
Corn [4]; 2 fl oz/A on DAP (67.5 lb/A Phosphate), base control 196.0
  Yield: 204.2 Bu/A
Corn [4]; 2 fl oz/A on DAP (67.5 lb/A Phosphate), base control 12319.5
  Yield: 12834.7 Kg/ha
Corn [4]; 3 fl oz/A on DAP (67.5 lb/A Phosphate), base control 196.0
  Yield: 202.6 Bu/A
Corn [4]; 3 fl oz/A on DAP (67.5 lb/A Phosphate), base control 12319.5
  Yield: 12734.7 Kg/ha
Corn [4]; text to Table 54, 1, 2 or 3 fl oz on 67.5 lb P/A DAP
  yield versus DAP control, in words: increased the yield
Corn [5]; 1 fl oz/A on Urea (135 lb/A Nitrogen), base control 188.2
  Yield: 205.0 Bu/A
Corn [5]; 1 fl oz/A on Urea (135 lb/A Nitrogen), base control 11830.4
  Yield: 12887.5 Kg/ha
Corn [5]; 2 fl oz/A on Urea (135 lb/A Nitrogen), base control 188.2
  Yield: 195.8 Bu/A
Corn [5]; 2 fl oz/A on Urea (135 lb/A Nitrogen), base control 11830.4
  Yield: 12309.9 Kg/ha
Corn [5]; 3 fl oz/A on Urea (135 lb/A Nitrogen), base control 188.2
  Yield: 195.6 Bu/A
Corn [5]; text to Table 55, 1, 2 or 3 fl oz on 135 lb N/A urea
  yield versus urea control and NBPT containing treatments, in words: increased the yield
Corn [6]
  yield versus base seed treatment package, in words: increased the yield
